# Positions count from the first letter of the chain named. Where two headings read alike, the source gives them in different places.
# B1: Nb 13 (VHH)
# VHH: QVQLQESGGGLVQSGGSLRLSCAVSGIGFVYYAMRWWRQAPGKERELVAGITGASGNTNYAESVKDRFTISRDNASNTVYLQMNSLKPEDTAVYYCNAAPLIRFGPPKDYWGQGTQVTVSS
# notes: Nb 13 is the only member of its family; Nanobody from a llama immunized with human and murine uPAR; also called lead anti-MuPAR Nanobody; source: E. coli WK6, purified from the periplasm (osmotic shock, IMAC, SEC)
# B2: 5A5 (Nb 16) (VHH)
# VHH: QVQLQESGGGLVQPGGSLRLSCAISGFTLDYYGIGWFRQAPGKEREGVSCISSSDGSTYYADSVKGRFTISRDNAKNTVYLQMNSLKPEDTAVYYCATRGASCYYSGSYSLGYDYWGQGTQVTVSS
# B3: 5H2 (Nb 18) (VHH)
# VHH: B2 VHH with V12A, A23T, I24A, L29S, S106T
# B4: 5B7 (Nb 17) (VHH)
# VHH: B2 VHH with I24V, F27S, D30E, S106T
# B5: Nb 15 (VHH)
# VHH: B2 VHH with L11W, I24A, S106T
# notes: Nanobody from a llama immunized with human and murine uPAR; The clone in bacterial extracts came before recloning into the expression vector, so its tags may differ from the purified form; also called anti-HuPAR Nb 15; lead anti-HuPAR/CuPAR Nanobody; source: E. coli WK6, purified from the periplasm (osmotic shock, IMAC, SEC); bacterial extracts for ELISA and SPR off-rate screening
# How the values were obtained:
# [1] = target: T1, recombinant murine urokinase plasminogen activator receptor (MuPAR) protein (Mus musculus, UniProt P35456); experiment: SPR; kinetic binding parameters (ka, kd, KD) of purified Nbs toward recombinant H, M or CuPAR antigens; conditions: both partners purified
# T1 construct: 'Extracellular domain' is said of the immunogen; also called murine uPAR
# T1 sequence (P35456 whole entry, looked up, the tested form may be a part): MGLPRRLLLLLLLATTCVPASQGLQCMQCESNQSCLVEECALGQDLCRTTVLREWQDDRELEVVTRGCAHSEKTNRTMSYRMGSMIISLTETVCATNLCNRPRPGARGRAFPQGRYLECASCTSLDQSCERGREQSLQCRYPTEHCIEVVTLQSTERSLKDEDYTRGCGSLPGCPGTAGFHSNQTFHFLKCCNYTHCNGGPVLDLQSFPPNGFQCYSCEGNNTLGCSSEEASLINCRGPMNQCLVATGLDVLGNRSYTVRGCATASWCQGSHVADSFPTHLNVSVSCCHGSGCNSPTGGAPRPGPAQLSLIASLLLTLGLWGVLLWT
# [2] = target: T2, recombinant human urokinase plasminogen activator receptor (HuPAR) protein (Homo sapiens, UniProt Q03405)
# Target sequence in this assay (Q03405 23-305): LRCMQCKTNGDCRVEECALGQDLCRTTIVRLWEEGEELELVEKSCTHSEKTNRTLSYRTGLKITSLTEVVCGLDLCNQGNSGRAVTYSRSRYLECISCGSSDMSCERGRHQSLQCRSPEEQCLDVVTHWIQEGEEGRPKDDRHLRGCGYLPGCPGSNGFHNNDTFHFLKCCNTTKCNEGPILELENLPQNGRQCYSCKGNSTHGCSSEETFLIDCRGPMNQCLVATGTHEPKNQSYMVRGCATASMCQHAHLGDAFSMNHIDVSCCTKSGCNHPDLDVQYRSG
# [3] = target: T2, recombinant human urokinase plasminogen …; experiment: SPR; kinetic binding parameters (ka, kd, KD) of purified Nbs toward recombinant H, M or CuPAR antigens; conditions: both partners purified
# Target sequence in this assay (Q03405 whole entry, looked up): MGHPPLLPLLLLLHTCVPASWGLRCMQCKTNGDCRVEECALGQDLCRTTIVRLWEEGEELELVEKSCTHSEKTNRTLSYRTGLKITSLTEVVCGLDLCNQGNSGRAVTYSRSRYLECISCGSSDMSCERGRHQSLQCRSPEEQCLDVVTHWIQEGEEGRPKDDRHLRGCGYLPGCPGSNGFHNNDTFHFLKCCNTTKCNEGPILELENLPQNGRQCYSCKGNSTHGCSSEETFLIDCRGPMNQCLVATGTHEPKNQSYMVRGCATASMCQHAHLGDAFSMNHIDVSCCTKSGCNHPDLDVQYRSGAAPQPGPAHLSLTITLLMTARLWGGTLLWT
# [4] = target: T1, recombinant murine urokinase …; experiment: ELISA; BE-ELISA: bacterial extracts of Nb clones on H, M or CuPAR protein, against uncoated control; cross-reactivity screening; conditions: one partner purified
Binder,Kd [2] [nM],further results
B1,,Kd [1]: < 10 nM
B2,3,
B3,4.7,
B4,2.3,
B5,,Kd [3]: < 10 nM; binding result [4]: no binding

# Reference: publication PMC11321701, “Generation and Characterization of Novel Pan‐Cancer Anti‐uPAR Fluorescent Nanobodies as Tools for Image‐Guided Surgery” (Advanced Science, 2024)
